Data published in article PMC10786891, “Massively parallel profiling of RNA-targeting CRISPR-Cas13d”.

T1: EsCas13d, nuclease-dead (Eubacterium siraeum, UniProt B0MS50, R295A;H300A;R849A;H854A)
T1 sequence: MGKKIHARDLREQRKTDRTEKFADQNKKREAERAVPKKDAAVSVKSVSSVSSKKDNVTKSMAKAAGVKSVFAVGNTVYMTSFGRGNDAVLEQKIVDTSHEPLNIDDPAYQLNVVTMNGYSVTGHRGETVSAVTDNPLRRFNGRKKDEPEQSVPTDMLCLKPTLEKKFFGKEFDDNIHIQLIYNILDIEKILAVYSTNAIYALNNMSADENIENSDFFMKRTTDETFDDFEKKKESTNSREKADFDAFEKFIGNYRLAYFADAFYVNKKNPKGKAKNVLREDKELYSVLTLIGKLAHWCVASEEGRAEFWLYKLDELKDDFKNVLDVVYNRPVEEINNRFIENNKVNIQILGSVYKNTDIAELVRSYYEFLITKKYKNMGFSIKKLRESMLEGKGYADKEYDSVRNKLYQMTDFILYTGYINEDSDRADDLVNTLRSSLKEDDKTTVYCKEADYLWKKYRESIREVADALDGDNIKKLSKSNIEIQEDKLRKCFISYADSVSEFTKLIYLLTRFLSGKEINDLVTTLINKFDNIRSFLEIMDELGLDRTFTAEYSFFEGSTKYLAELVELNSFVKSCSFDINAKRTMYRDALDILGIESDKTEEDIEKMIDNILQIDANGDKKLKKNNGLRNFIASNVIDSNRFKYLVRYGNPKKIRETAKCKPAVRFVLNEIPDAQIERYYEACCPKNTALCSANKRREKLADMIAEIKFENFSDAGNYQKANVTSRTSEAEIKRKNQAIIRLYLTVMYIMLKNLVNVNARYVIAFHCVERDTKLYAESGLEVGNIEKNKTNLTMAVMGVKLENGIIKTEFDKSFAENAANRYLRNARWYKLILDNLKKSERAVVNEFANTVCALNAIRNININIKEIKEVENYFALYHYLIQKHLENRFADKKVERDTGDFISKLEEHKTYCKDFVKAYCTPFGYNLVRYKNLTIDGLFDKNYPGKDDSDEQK

B1: target 1 G15U,G17C (mixed)
RNA 1: CACCCGUGCAAAAAUGCAGGGGUCUAAAACUGAGCGGAUAACCUCUCUAUGG
RNA 2: GGGAAUGGAUCCACAUCUACGAAUUCGUACCAUACAUAGGUUAUCCGCUCACCGAGAUCGGAAGAGCACACGU
B2: target 1 insU 3' of 14,insC 3' of 3 (mixed)
RNA 1: CACCCGUGCAAAAAUGCAGGGGUCUAAAACUGAGCGGAUAACCUCUCUAUGG
RNA 2: GGGAAUGGAUCCACAUCUACGAAUUCGUACCAUAGAGAUGGUUAUCCGCUCCACCGAGAUCGGAAGAGCACACGU
B3: target 1 U3G,G13C (mixed)
RNA 1: CACCCGUGCAAAAAUGCAGGGGUCUAAAACUGAGCGGAUAACCUCUCUAUGG
RNA 2: GGGAAUGGAUCCACAUCUACGAAUUCGUACCAUAGAGACGUUAUCCGCGCACCGAGAUCGGAAGAGCACACGU
B4: target 1 G13U,A14U (mixed)
RNA 1: CACCCGUGCAAAAAUGCAGGGGUCUAAAACUGAGCGGAUAACCUCUCUAUGG
RNA 2: GGGAAUGGAUCCACAUCUACGAAUUCGUACCAUAGAGUUGUUAUCCGCUCACCGAGAUCGGAAGAGCACACGU
B5: target 1 G5C,G13U (mixed)
RNA 1: CACCCGUGCAAAAAUGCAGGGGUCUAAAACUGAGCGGAUAACCUCUCUAUGG
RNA 2: GGGAAUGGAUCCACAUCUACGAAUUCGUACCAUAGAGAUGUUAUCCCCUCACCGAGAUCGGAAGAGCACACGU
B6: target 1 insU 3' of 22,insA 3' of 2 (mixed)
RNA 1: CACCCGUGCAAAAAUGCAGGGGUCUAAAACUGAGCGGAUAACCUCUCUAUGG
RNA 2: GGGAAUGGAUCCACAUCUACGAAUUCGUACUCAUAGAGAGGUUAUCCGCUCAACCGAGAUCGGAAGAGCACACGU
B7: target 1 insU 3' of 22,insC 3' of 1 (mixed)
RNA 1: CACCCGUGCAAAAAUGCAGGGGUCUAAAACUGAGCGGAUAACCUCUCUAUGG
RNA 2: GGGAAUGGAUCCACAUCUACGAAUUCGUACUCAUAGAGAGGUUAUCCGCUCACCCGAGAUCGGAAGAGCACACGU
B8: target 1 insU 3' of 7,insA 3' of 5 (mixed)
RNA 1: CACCCGUGCAAAAAUGCAGGGGUCUAAAACUGAGCGGAUAACCUCUCUAUGG
RNA 2: GGGAAUGGAUCCACAUCUACGAAUUCGUACCAUAGAGAGGUUAUCUCGACUCACCGAGAUCGGAAGAGCACACGU
B9: target 1 insU 3' of 22,insG 3' of 1 (mixed)
RNA 1: CACCCGUGCAAAAAUGCAGGGGUCUAAAACUGAGCGGAUAACCUCUCUAUGG
RNA 2: GGGAAUGGAUCCACAUCUACGAAUUCGUACUCAUAGAGAGGUUAUCCGCUCAGCCGAGAUCGGAAGAGCACACGU
B10: target 1 insA 3' of 21,insC 3' of 9 (mixed)
RNA 1: CACCCGUGCAAAAAUGCAGGGGUCUAAAACUGAGCGGAUAACCUCUCUAUGG
RNA 2: GGGAAUGGAUCCACAUCUACGAAUUCGUACCAAUAGAGAGGUUACUCCGCUCACCGAGAUCGGAAGAGCACACGU
B11: target 1 insC 3' of 17,insC 3' of 3 (mixed)
RNA 1: CACCCGUGCAAAAAUGCAGGGGUCUAAAACUGAGCGGAUAACCUCUCUAUGG
RNA 2: GGGAAUGGAUCCACAUCUACGAAUUCGUACCAUAGCAGAGGUUAUCCGCUCCACCGAGAUCGGAAGAGCACACGU
B12: target 1 insG 3' of 22,insA 3' of 3 (mixed)
RNA 1: CACCCGUGCAAAAAUGCAGGGGUCUAAAACUGAGCGGAUAACCUCUCUAUGG
RNA 2: GGGAAUGGAUCCACAUCUACGAAUUCGUACGCAUAGAGAGGUUAUCCGCUACACCGAGAUCGGAAGAGCACACGU
B13: target 1 A1U,U11G (mixed)
RNA 1: CACCCGUGCAAAAAUGCAGGGGUCUAAAACUGAGCGGAUAACCUCUCUAUGG
RNA 2: GGGAAUGGAUCCACAUCUACGAAUUCGUACCAUAGAGAGGGUAUCCGCUCUCCGAGAUCGGAAGAGCACACGU
B14: target 1 insA 3' of 17,insC 3' of 3 (mixed)
RNA 1: CACCCGUGCAAAAAUGCAGGGGUCUAAAACUGAGCGGAUAACCUCUCUAUGG
RNA 2: GGGAAUGGAUCCACAUCUACGAAUUCGUACCAUAGAAGAGGUUAUCCGCUCCACCGAGAUCGGAAGAGCACACGU
B15: target 1 G5U,A14C (mixed)
RNA 1: CACCCGUGCAAAAAUGCAGGGGUCUAAAACUGAGCGGAUAACCUCUCUAUGG
RNA 2: GGGAAUGGAUCCACAUCUACGAAUUCGUACCAUAGAGCGGUUAUCCUCUCACCGAGAUCGGAAGAGCACACGU
B16: target 1 C2A,G12C (mixed)
RNA 1: CACCCGUGCAAAAAUGCAGGGGUCUAAAACUGAGCGGAUAACCUCUCUAUGG
RNA 2: GGGAAUGGAUCCACAUCUACGAAUUCGUACCAUAGAGAGCUUAUCCGCUAACCGAGAUCGGAAGAGCACACGU
B17: target 1 insC 3' of 8 (mixed)
RNA 1: CACCCGUGCAAAAAUGCAGGGGUCUAAAACUGAGCGGAUAACCUCUCUAUGG
RNA 2: GGGAAUGGAUCCACAUCUACGAAUUCGUACCAUAGAGAGGUUAUCCCGCUCACCGAGAUCGGAAGAGCACACGU
B18: target 1 A9U,A18C (mixed)
RNA 1: CACCCGUGCAAAAAUGCAGGGGUCUAAAACUGAGCGGAUAACCUCUCUAUGG
RNA 2: GGGAAUGGAUCCACAUCUACGAAUUCGUACCAUCGAGAGGUUUUCCGCUCACCGAGAUCGGAAGAGCACACGU
B19: target 1 U3G,A9C (mixed)
RNA 1: CACCCGUGCAAAAAUGCAGGGGUCUAAAACUGAGCGGAUAACCUCUCUAUGG
RNA 2: GGGAAUGGAUCCACAUCUACGAAUUCGUACCAUAGAGAGGUUCUCCGCGCACCGAGAUCGGAAGAGCACACGU
B20: target 1 insC 3' of 12,insA 3' of 8 (mixed)
RNA 1: CACCCGUGCAAAAAUGCAGGGGUCUAAAACUGAGCGGAUAACCUCUCUAUGG
RNA 2: GGGAAUGGAUCCACAUCUACGAAUUCGUACCAUAGAGAGGCUUAUACCGCUCACCGAGAUCGGAAGAGCACACGU
B21: target 1 C4G,U10A (mixed)
RNA 1: CACCCGUGCAAAAAUGCAGGGGUCUAAAACUGAGCGGAUAACCUCUCUAUGG
RNA 2: GGGAAUGGAUCCACAUCUACGAAUUCGUACCAUAGAGAGGUAAUCCGGUCACCGAGAUCGGAAGAGCACACGU
B22: target 1 insA 3' of 21,insG 3' of 16 (mixed)
RNA 1: CACCCGUGCAAAAAUGCAGGGGUCUAAAACUGAGCGGAUAACCUCUCUAUGG
RNA 2: GGGAAUGGAUCCACAUCUACGAAUUCGUACCAAUAGAGGAGGUUAUCCGCUCACCGAGAUCGGAAGAGCACACGU
B23: target 1 G13A,A14U (mixed)
RNA 1: CACCCGUGCAAAAAUGCAGGGGUCUAAAACUGAGCGGAUAACCUCUCUAUGG
RNA 2: GGGAAUGGAUCCACAUCUACGAAUUCGUACCAUAGAGUAGUUAUCCGCUCACCGAGAUCGGAAGAGCACACGU
B24: target 1 insA 3' of 5,insU 3' of 2 (mixed)
RNA 1: CACCCGUGCAAAAAUGCAGGGGUCUAAAACUGAGCGGAUAACCUCUCUAUGG
RNA 2: GGGAAUGGAUCCACAUCUACGAAUUCGUACCAUAGAGAGGUUAUCCGACUCUACCGAGAUCGGAAGAGCACACGU

These binders were tested against T1, EsCas13d, nuclease-dead (assay: crRNA (strand 1, pre-loaded); Mg2+; 40 mM Tris-HCl pH 7.5, 150 mM NaCl, 6 mM MgCl2, 1 mM DTT, 0.1% Tween-20, 0.2 mg/ml BSA; 25 C; 10 min per concentration, then washed). Settings: tags: His6-TwinStrep-SUMO cleaved; N-terminal SNAP kept (SNAP-Surface 488); label: 3' end held by stalled T7 RNA polymerase.

Compared with B1, B2 is 2.3-fold higher in Kd: 34.6 ± 3 nM for the first, 80 ± 40 nM for the second.

Compared with B3, B4 is 3.7-fold lower in Kd: 30.3 ± 2.3 nM for the first, 8.2 ± 0.4 nM for the second. The second binds more tightly here.

B5 and B6 are within error of each other in Kd: 40 ± 9 nM for the first, 33.5 ± 2.8 nM for the second.

Going from B7 to B8, the Kd falls from 29.1 ± 2.4 nM to 17.4 ± 1 nM (1.7-fold).

B9 and B10 are within error of each other in Kd: 35 ± 4 nM for the first, 31.5 ± 2 nM for the second.

First: B11
Second: B12
The Kd of the first is 2.3-fold higher: 60 ± 13 nM for the first, 25.6 ± 2.3 nM for the second. The second binds more tightly here.

B13 and B14 are within 1.5-fold of each other in Kd: 20.8 ± 0.9 nM for the first, 14.8 ± 1.1 nM for the second.

Going from B15 to B16, the Kd falls from 20.7 ± 1.5 nM to 7.21 ± 0.25 nM (2.9-fold). The second binds more tightly here.

First: B17
Second: B18
The Kd of the first is 4.5-fold lower: 13.2 ± 0.7 nM for the first, 60 ± 5 nM for the second. The first binds more tightly here.

B19 and B20 are within 1.5-fold of each other in Kd: 9.4 ± 0.7 nM for the first, 12 ± 0.9 nM for the second.

Going from B21 to B22, the Kd rises from 4.87 ± 0.25 nM to 51 ± 5 nM (10-fold). The first binds more tightly here.

Compared with B23, B24 is 2.2-fold higher in Kd: 6.6 ± 0.7 nM for the first, 14.7 ± 0.9 nM for the second. The first binds more tightly here.
